Measurements reported in paper PMC10769878 (2024).

T1: YosL^SPβ (Bacillus subtilis phage SPβ, UniProt O31877 1-117)
T1 chain: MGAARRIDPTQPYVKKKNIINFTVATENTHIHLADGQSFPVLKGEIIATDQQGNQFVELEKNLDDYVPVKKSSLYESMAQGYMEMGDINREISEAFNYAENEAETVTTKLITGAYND

T2: YosL^phi3T (Bacillus subtilis phage phi3T)
T2 chain: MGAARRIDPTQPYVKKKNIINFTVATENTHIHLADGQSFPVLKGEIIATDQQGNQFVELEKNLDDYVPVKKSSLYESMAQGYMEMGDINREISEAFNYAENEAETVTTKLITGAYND

T3: phi3T_93 (Bacillus subtilis phage phi3T)
T3 chain: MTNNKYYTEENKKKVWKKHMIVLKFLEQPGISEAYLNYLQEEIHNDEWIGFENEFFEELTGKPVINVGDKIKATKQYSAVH

B1: MazF (enzyme)
chain: MIVKRGDVYFADLSPVVGSEQGGVRPVLVIQNDIGNRFSPTAIVAAIAAQIQKAKLPTHVEIDAKRYGFERDSVILLEQIRTIDKQRLTDKITHLDDEMMDKVDEALQISLALIDF

Experiments:
Assay in all cases: BLI
[1] = target: T1, YosL^SPβ
[2] = target: T2, YosL^phi3T
[3] = target: T1, YosL^SPβ
[4] = target: T2, YosL^phi3T
[5] = target: T3, phi3T_93
[6] = target: B1
[7] = target: T3, phi3T_93
[8] = target: B1

Binder	Kd [1]	Kd [2]	koff [3]	koff [4]	Kd [5]	Kd [6]	koff [7]	koff [8]
B1	15 nM	20.2 nM	0.00085 s⁻¹	0.00033 s⁻¹				
AimX (natural protein) MKRALGKAISYEEMAKGYEEMAAINSIIAQEDNHLENEAEMIKTRYKTLAS					184 nM	81.3 nM	0.045 s⁻¹	0.0066 s⁻¹
MazE (natural protein) MSESSARTEMKISLPENLVAELDGVAMREKRSRNELISQAVRAYVSERTTRHNRDLMRRGYMEMAKINLNISSEAHFAECEAETTVERLVSGG					27.3 nM	404 nM	0.0013 s⁻¹	0.01 s⁻¹
